What was measured:
[1] = test system: metritis causing bacteria; assay: Agar well zone of inhibition on bacteria cultured from metritis discharge; assay type: cell-based, bacteria from the discharge of a cow diagnosed with metritis; settings: 24 hour diffusion at 37° C.
Description: A cow that was diagnosed with metritis, as evidenced by elevated temperature, elevated total leukocyte count, raised tails, and foul smelling discharge, had the discharge cultured onto blood agar plates. Bacteria colonies with different morphology from the metritis discharge that grew were selected and placed into 20 ml liquid nutrient broth in culture tubes at a defined amount and incubated overnight at 37° C. The bacteria in the liquid nutrient broth was then used to create agar plates by mixing 1 ml of nutrient broth containing bacteria with 15 ml of warm agar and poured into petri dishes and incubated for 24-48 hrs. at 37° C. Then, holes were punched into the agar and a dose response of previously purified ovotransferrin at 0%, 10% and 25% w/v in sterile water was placed in the holes. The plates were allowed to diffuse for 24 hour at 37° C. to check for zone of inhibition. Zones of inhibition were visualized by clearings in the agar where no bacteria grew. […] This is consistent with ovotransferrin in killing the bacteria that cause metritis. It was concluded that ovotransferrin of the invention is able to inhibit growth of the metritis causing bacteria in a dose dependent manner.

[2] = test system: Cows with clinical endometritis; assay: Intrauterine infusion of ovotransferrin solution in cows with clinical endometritis; assay type: in vivo, cow
Source text: (§1) Cows with clinical endometritis (n=4) were identified based on the clinical signs, rectal temperature, score of mucus characteristics, total polymorph numbers, pH of uterine discharge, uterine swab analysis, and bacterial culture, along with healthy cows (control, n=4). Two hundred ml of a 5% ovotransferrin solution of the invention were infused intrauterine with a special pipette attached to a pump in the treatment group. Seven days later, all the above parameters were reexamined. Total number of polymorph in uterine discharge was counted using a hemocytometer, stained with Giemsa and Gram stain.
as §1, with “(n=3)” for “(n=4)”, “n=3.” for “n=4).”, “reexamined.” for “reexamined. Total number of polymorph in uterine discharge was counted using a hemocytometer, stained with Giemsa and Gram stain.”
as §1, with “reexamined. Mucus score was 6 times higher” for “reexamined. Total number of polymorph”, “in metritis affected cows than control values. […] This indicates the invention” for “in uterine discharge”, “was efficacious for treatment metritis in cows.” for “was counted using a hemocytometer, stained with Giemsa and Gram stain.”
as §1, with “reexamined.” for “reexamined. Total number of polymorph in uterine discharge was counted using a hemocytometer, stained with Giemsa and Gram stain.”

[3] = test system: infectious metritis in cows; assay: Clinical trial of ovotransferrin bolus to prevent infectious metritis in postpartum cows; assay type: in vivo, cow; settings: examined after 30 days
Description: (§2) A clinical trial was conducted to examine efficacy of the invention to prevent infectious metritis in cows. 10 gram of purified Ovotransferrin was mixed with 10 grams of binding agent to create a 20 gram total bolus with dimensions of 2 cm wide and 6 cm long. For N=5 cows from a herd known to have the standard metritis rate were selected that were 3 hours postpartum. Two boluses were inserted into the uterus and allowed to dissolve. The cows were monitor daily for any obvious signs of metritis. After 30 days, the cows were examined in detail for clinical signs of metritis. […] It would be expected that at least one of the cows of this group would have had metritis 10-12 days without the use of the invention.
as §2, with “A single bolus was” for “Two boluses were”
as §2, with “cows. 2.5” for “cows. 10”, “with 17.5” for “with 10”, “For N=7” for “For N=5”
A clinical trial was conducted to examine efficacy of the invention to prevent infectious metritis in cows. 2.5 gram of purified Ovotransferrin was mixed with 17.5 grams of binding agent to create a 20 gram total bolus with dimensions of 2 cm wide and 6 cm long. For N=7 cows from a herd known to have the standard metritis rate were selected that were 3 hours postpartum. A single bolus was inserted into the uterus and allowed to dissolve. The cows were monitor daily for any obvious signs of metritis. After 30 days, the cows were examined in detail for clinical signs of metritis. […]

B1: ovotransferrin (protein, UniProt P02789 20-705, looked up)
Ovotransferrin: APPKSVIRWCTISSPEEKKCNNLRDLTQQERISLTCVQKATYLDCIKAIANNEADAISLDGGQAFEAGLAPYKLKPIAAEVYEHTEGSTTSYYAVAVVKKGTEFTVNDLQGKTSCHTGLGRSAGWNIPIGTLLHRGAIEWEGIESGSVEQAVAKFFSASCVPGATIEQKLCRQCKGDPKTKCARNAPYSGYSGAFHCLKDGKGDVAFVKHTTVNENAPDQKDEYELLCLDGSRQPVDNYKTCNWARVAAHAVVARDDNKVEDIWSFLSKAQSDFGVDTKSDFHLFGPPGKKDPVLKDLLFKDSAIMLKRVPSLMDSQLYLGFEYYSAIQSMRKDQLTPSPRENRIQWCAVGKDEKSKCDRWSVVSNGDVECTVVDETKDCIIKIMKGEADAVALDGGLVYTAGVCGLVPVMAERYDDESQCSKTDERPASYFAVAVARKDSNVNWNNLKGKKSCHTAVGRTAGWVIPMGLIHNRTGTCNFDEYFSEGCAPGSPPNSRLCQLCQGSGGIPPEKCVASSHEKYFGYTGALRCLVEKGDVAFIQHSTVEENTGGKNKADWAKNLQMDDFELLCTDGRRANVMDYRECNLAEVPTHAVVVRPEKANKIRDLLERQEKRFGVNGSEKSKFMMFESQNKDLLFKDLTKCLFKVREGTTYKEFLGDKFYTVISSLKTCNPSDILQMCSFLEGK
notes: 12 to 13% of total egg white protein
Question: What does the source list for B1?
Answer: zone of inhibition ([1]; 10% w/v ovotransferrin in sterile water in agar wells): a zone of inhibition was seen; zone of inhibition ([1]; 25% w/v ovotransferrin in sterile water in agar wells): a larger zone; Mean pH of uterine discharge ([2]; one week after intrauterine infusion of 200 ml 5% solution, 8.8 before treatment, healthy control 6.8, n=3, p<0.05, FIG. 2): 7.0; Rectal temperature ([2]; one week after intrauterine infusion of 200 ml 5% solution, >40° C. before treatment, n=4, FIG. 1): 38.5 °C; Mucus score ([2]; seven days after intrauterine infusion of 200 ml 5% solution, 6 times control before treatment, n=4, FIG. 3): statistically significant decrease; Total number of polymorph in uterine discharge ([2]; seven days after intrauterine infusion of 200 ml 5% solution, more than 70 times control before treatment, n=4, FIG. 4): statistically significantly (p<0.01) reduced (2 and 4 times higher, respectively, compared with control); clinical signs of metritis ([3]; single bolus of 2.5 g ovotransferrin in uterus 3 hours postpartum, N=7): None of the cows had any signs of metritis; clinical signs of metritis ([3]; single bolus of 10 g ovotransferrin in uterus 3 hours postpartum, N=5): None of the cows had any signs of metritis; clinical signs of metritis ([3]; two boluses of 2.5 g ovotransferrin (5 grams) in uterus 3 hours postpartum, N=7): None of the cows had any signs of metritis; clinical signs of metritis ([3]; two boluses of 10 g ovotransferrin (20 grams) in uterus 3 hours postpartum, N=5): None of the cows had any signs of metritis

Reference: patent publication US10905748B2, “Ovotransferrin treatment for the reproductive tract” (Vets Plus, Inc., priority 2018, dated 2021)
